Assay results: the DeepSol protein solubility set

Test: soluble on expression in E. coli; label from the status in PepcDB or PDB records

| Sequence | soluble on expression in E. coli |
| --- | --- |
| MTSNKQLINERDHAESALADMYFAATGDEPEWSNWFGFSDAVDAVVDRIADLEAKQPSPVVPEGLVKAVRFYEQVKRENPPVETEAWKDAIDWVLKESCQAVNIDTNGD | soluble |
| MSGEDDYNSDDEANKNLSKKELQELKRKQQKSKKKKESKKRAKATKQAEIETREEPKKEEENGDDLDVEIDYIGETIEIEPDNPHAQYFSAIFDAFKISTDSEDGFSYGHHVSKGEKKDDLGKVGQAERIIQEEMEERAKENTEEKLSRRKLRISLQPSIAKLKETTLRADVVEWADVTSRDPYLLVAMKSYRNSVPVPRHWNAKRKYLAGKRGFERPPFELPDFIKRTGIQDMREALLEKEESQSLKSKMRERARPKLGKIDIDYQKLHDAFFKWQTKPAMTKMGELYYEGKEMEAMMRDKKPGEMSDELRIALGMPIGSNAFKFPPPWLIAMQRYGPPPSFPHIKIPGLNAPIPEGCAFGYHAGGWGKPPVDEYGHPLYGDVFGLAAPAFEPEDESQIERRYWGEIGSDESSDEEESEEEEHADDDDADVEGGFQTPAPVEGMITPSGMTTGITGIETPDTIELRKGKESSVLGTDTPAAAYHIIPEKKNERIGGQMMASSHTYDLSKKHAVRDDGVQISLDPESIDMDEQGLAARYEEQLRKQKHRDDDDEDREDLTDMVAEHAAKQNRKRKVQDDKKNKTSSSSSSGSSGKKHKDFKF | not soluble |
| MLRPKEACQRLGISYATLREYVKKGYIKPVILQSGKQRFGEEDVERLMGIIRKRKVILYARVSSSTQKDELVNQVKYLEEQVKEYDLVITDIGSGLNMKRKGFLKLLRMILNNEVSRVVVAYPDRLVRVGFEILEEVCKAHNCEIVVLNQEDKEEELVEDLMSALVSFSGKLYGMRSHEYEKVKKCAEELKNWKI | not soluble |
| MGSDKIHHHHHHMTDTTIPNPLAPVKGANTTFWMYNSEGDPFASPLSDNNWLRLANVKDLQPGELTADAEDNNYLDDENADWKSTTQGQKSAGDTSVTLAWKPGEDVQKKLIQLFTTGQKRGFRIKYPNGTVDVFRGWVSSLGKTVQSKDEIARTVKITSVGRPYMAEEDAPEVVSVTGLTVEPTNATVKVGATTAVTFTVKPDNVTDKSLRIATSDPTTATVTQAENIATVKGVKAGTVKIIGMTTDGNFTAIADITVQA | not soluble |
| MGSDKIHHHHHHMIYLEQFTFPDGDRESIFFQDKVKRTCYDSYYPFQVLPGRGLERLDFDLITILYGGNGSGKSTLLNIIAEKTEIPRDAIYNKSNFFPDYVAMCEMQLKVFLPEHSRIITSDDVFDYMLNIRSLNEGIDRKREQLFDDYLEAKYSRFQLKSLADYEELKRVNHARFNSQSRFVRNELMDNAREYSNGENAFRYFTEKIDEKGLYLLDEPENSLSPKRQLELVQFIEDSARFWQCQFIIATHSPFLLALRGAKIYNLDETPVAVKRWTELENVRIYYDFFKKREREF | not soluble |
| MTYLEIEGTNHLSGNVTISGAKNAALPLIVSSILAKNEVKINNVPNVADIKTLISLLENLGAKVNFQNNSALLNTNTLNQTIAKYDIVRKMRASILTLGPLLARFGHCEVSLPGGCAIGQRPIDLHLLALEKMGANIQIKQGYVVASGNLKGNEILFDKITVTGSENIIMAAALAKGKTKLLNVAKEPEVVQLCEVLKDAGLEIKGIGTDELEIYGSDGELLEFKEFSVIPDRIEAGTYLCAGAITNSKITLDKVNATHLSAVLAKLHQMGFETLITEDSITLLPAKEIKPVEIMTSEYPGFPTDMQAQFMALALKANGTSIIDERLFENRFMHVSELLRMGADIKLNGHIATIVGGKELNAADVMATDLRASSALILAALAAKGTSKVHRIYHLDRGYENLEEKFKDLGAKITRLEE | not soluble |
| MFYAQFVLAKKGPLAKVWLAAHWEKKLTKAQIFETDVPQAIEEVIRPKVKMALRTVGHLLLGIVRIYSKKTRYLLADTNEAYQKMKINFRNGFSFEVDIPENAEIEEDFSNFIDKYNITVPEFHDADYNEQLIMANVSRREDITMKETVNFNVEFNIDADFDGFGDEGESWQLDHLYGSVEPLSLRPTPQPESLMEVERDRDVAANGTEISRIDADSVIFSEGPTRPNLIFDNQEGGNFMPEMNLKVENQTLENDGGVGPADMFSSMIHPVREHAVADVQNDDGMDFDYQPFEPENVEPSRPQSPESFALEPLDVEHMEGRKKRQRKARKLIVDAETMISNDAFREQQEDFSDTMRVVEMAPPTRKMFNLCVSGDLQHLSREPGCKMFNRELLQRYRRCLVTREFDLNYTMQELSDSSSFTPSMEAQAEPWEDLNLNEDIQEDIQAQGPAVDEFFNDVRMDDDDDRQPAQEMDFGDNFDFPQEVEHQECAPIPIQSGFAGENKENEDAEDWSDPFGSSNSSRRGQLEAYGFGNTSTYKEDDGKWAKRAKHILKKVSADIETSGQADFSSVTATAKNRKQAAEQFYSLLTLAKSQAISVDQSEPYGEIVIRPGANFKEACPLSSPKPMGLGNTMENSTMRTPMRPV | not soluble |
| MEADRKADNGNAGFSLVCHPEERITYRVGNKVICCLDGSRIGIQFETSTAGETYEVYHCVLESKSFLEKMIVLEHTIPFFLPLSDLENDLLFSNAKKFIDNVGDLLQAYVDRKEQVRLIKELFGHQISEIYHSLPYHMIEFSMDDCDCKFVVSLRYGDLLCELPTKVRILVWPMHHLSKKQCTSPGSPAIPVRLPFAEDAFRIQSLPEAYAEIMPNMPNEIRQLFQTSPS | soluble |
| MVKITNNVHQFGYEPAEFLSKKLTFTDIVHPEDLDRIVKEMVAFLKNDIVYFEQDYRIFTKGGDIRWVYEKTILKTDDTGLPTLAKGYLLDITER | not soluble |
| MSLAKRIVGSTPKQDGFRMPGEFEPQEKVWMIWPERPDNWRDGGKPVQEAFTNVAKAISQFTPMNVVVSQQQFQNCRRQLPPEITVYEMSNNDAWVRDCGPSFVINDHGEIRGVDWTFNAWGGLVDGLYFPWDQDDLVAQKICEIEHVDSYRTDDFVLEGGSFHVDGQGTVLTTEMCLLSEGRNPQLSKEAIEQKLCDYLNVEKVLWLGDGIDPEETNGHVDDVACFIAPGEVACIYTEDQNSPFYEAAQDAYQRLLKMTDAKGRQLKVHKLCCPVKNVTIKGSFKIDFVEGTMPREDGDICIASYMNFLITNDGVIVPQYGDENDHLALEQVQTMFPDKKIVGVNTVEVVYGGGNIHCITQQEPKREGGSHHHHHH | soluble |
| MRRRGKGGGSVFYHEGKGKWVAQLTWIDPATGRKVKREKHCETRKEAERALADMVVAQAKGLLTDPSRLTTRDFALDYLKRLEREGLRPNSIRLAQEELAHALPSLKDPKAHDPLGRMRLQEVKPVHVRAAVDRVAEAGYAPRTVGRVLMRLKALFREALRLELVARNPAEAVRLRLPKGEKTARALEPQEVARLLETAEASRSKDMALLLRLMLETGLRRGEALALQWRDIDLEAGELTVWRSWTKARGKGAFSEPKTPTAKRKVPLPRGLLLRLKARREELLERLTPKEVDGLFLVGGVKPVDPDAFNHYLRRLAERAGLGRVRVHDLRHTWATLALSRGVPLEVVSERLGHASPTITLNVYRHLLEEERRGWVLDLEELLYPAPRAQA | soluble |
| MGSDKIHHHHHHMNQEQNDIAIRVSNLSKCYHIYDTPRDRLKQFILPRLHHLTGQTPRQYFREFWALRDVSFEVKKGETIGIIGRNGSGKSTLLQMICGTLNPTSGSITTYGRIAALLELGSGFNPEFTGRENVYMNASVLGLSQEETDARFDDIAAFADIGEFIEQPVKTYSSGMMVRLGFAVQAQVKPDILIVDEALAVGDAKFQAKCFDRLQQLKDGGTSILLVTHSSEQIVTHCSEAILLDGGDVIEHGEPRYVVNHYMDLLFGKERKSYSASAFSTESNSVEPTQDDNLSLNFIDDVFSSHANYNEHEYRWGDGTATILDFYLLTDNEPYPSVITSGQSVVLGVAVRFYEDLVRPILGITIKTKEGVTVYGVNSETLETDEIKVLGSKGTTALIKAEFICRLAPGDYFISLGLATRKGEEIVPHDRRYDAIYLQIAPVTKFFGLVDLGLKLSAQNTSL | not soluble |
| MEKRNEEHSRKKFIEEQLNALKHEERVLNETRTKLQQQKWHLLQENDKIKEKIRVRDAAAGAGTGTGAPPE | not soluble |
| MAHHHHHHMYKLVLIRHGESTWNKENRFTGWVDVDLTEQGNREARQAGQLLKEAGYTFDIAYTSVLKRAIRTLWHVQDQMDLMYVPVVHSWRLNERHYGALSGLNKAETAAKYGDEQVLVWRRSYDTPPPALEPGDERAPYADPRYAKVPREQLPLTECLKDTVARVLPLWNESIAPAVKAGKQVLIAAHGNSLRALIKYLDGISDADIVGLNIPNGVPLVYELDESLTPIRHYYLGDQEAIAKAQAAVAQQGKSAA | soluble |
| MPAKERFFGFHPCKLVEQVEDCVRDLLEDALDGLETSLFRECALAFDALQENAVTSEHEHAKRLLLQQGLMRLRDALFTAFYDQMDRLQVYLLRNVFHIPPGLRIPNVNTSEDLVENWEQALGIDPSSVQIDANAEDEHAVDQELVALRQSLRVARQRLQRLCRERSVLEGAFHRLEGALQSRLASTLIPTEPEDPSGDCDALAKQVVTIARAVSELEAVVRSCRDQFLGDRSSAASGGAPPSGTVPAAAGGSDVGAQGALVRPPLELERIFDAHTKATRVDSLDAVDALRRALHRSC | not soluble |
| MKEVLFISEMERGRAEIESRVSNIKTTQDFGYREKIKEKKDASTAYAACISELLLEEKVKKIAVAYDFPIFYSNYLTEAGFTIVPVKSPFRKMRSVKGPEEIEAIKYAQMAGEKAMEAAITLIADAEEKDGVLYFEGQVLTGAKVNSVIDHTLLDFGCEAEETIVSCGEDTSNPHGTTEGPLRANAPIILDIFPRSKKKRYFADMTRTVLRGEASEKLKEMYETVLVAQQKALEMVKPGIHSSEIHRAVCDLFEARGYHTYRSGSKAGFTHSTGHGVGLDIHELPSVGESGVLLETGNVITIEPGLYYPGIGGIRLEDMVLVTKTGYENFTGLEKKFVLKSFYNLEHHHHHH | not soluble |
| MGSDKIHHHHHHMALIIAGERSGVGKTTTTLTLLAALKARQASVQSFKVGPDYIDPMFHRFVTGRDCRNLDPILTDEDYVQHCFQQHSQTADYTLVEGVMGLFDGLTGKTDTASTAHIARILNLPILLVLNCSSTARSIAAIAYGYQNFDSRLKIAGLVLNRVGSDRHLELLKDALEPLEIPILGVLRRQDEIQIPDRHLGLIPTSELPHLQSVIDRLAVLGQQCFDWNRLEPLLSNSDLNSTAFKSTTPSISLKSSVPIAIARDRAFNFYYADNFDLLRAAGAELIEWSPLQDRQLPAGVQGLYLGGGFPEVFAAELSDNLLARQAVQTAITQGIPCYAECGGLMYLCQHIIDFEQTQYPMVGAIAATAQMGSRLTLGYREATAQQASPLLQKGQVVWGHEFHRSSLREPIAQPLFQLQNFDGSLHYGEGYSQPNLHASYLHLHFGGKPWLIQNFLQACQQATALSR | not soluble |
| MAPRVITLSPANTELAFAAGITPVGVSSYSDYPPQAQKIEQVSTWQGMNLERIVALKPDLVIAWRGGNAERQVDQLASLGIKVMWVDATSIEQIANALRQLAPWSPQPDKAEQAAQSLLDQYAQLKAQYADKPKKRVFLQFGINPPFTSGKESIQNQVLEVCGGENIFKDSRVPWPQVSREQVLARSPQAIVITGGPDQIPKIKQYWGEQLKIPVIPLTSDWFERASPRIILAAQQLCNALSQVDLEHHHHHH | soluble |
| MRGSHHHHHHGSATSANTDRIATAELGIAENKKDAQIAKAQANENKDGIAKNQADIQLHDKKITNLGILHSMVARAVGNNTQGVATNKADIAKNQADIANNIKNIYELAQQQDQHSSDIKTLAKVSAANTDRIAKNKAEADASFETLTKNQKLCSQA | soluble |
| MNKRENPIYKVIFLNQGQVFEMYAKQIYQSDLWGFLEIEEFVFGERTQVVVDPSEEKLKAQFEGVLRSFVPMHAIVRIDEVERLGTPKISEAKGAGNVMPFPMPMPGKSD | not soluble |
